B1: 15-bp ETS consensus duplex (dsDNA)
DNA 1: CAAGCCGGAAGTGAG
DNA 2: CTCACTTCCGGCTTG
B2: 23-bp ETS consensus duplex (dsDNA)
DNA 1: CGGCCAAGCCGGAAGTGAGTGCC
DNA 2: GGCACTCACTTCCGGCTTGGCCG

Tests used:
ETV62C-red = biological target: T1, ETV62C-red (Mus musculus (murine), UniProt P97360 329-446, C334S;A393C;V437C); experiment: NMR
T1 sequence: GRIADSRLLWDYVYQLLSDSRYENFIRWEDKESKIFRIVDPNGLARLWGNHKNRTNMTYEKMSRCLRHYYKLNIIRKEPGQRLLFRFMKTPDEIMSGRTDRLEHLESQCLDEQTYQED

ETV6H432R = biological target: T2, ETV6H432R (Mus musculus (murine), UniProt P97360 329-446, C334S;H432R); experiment: EMSA
T2 sequence: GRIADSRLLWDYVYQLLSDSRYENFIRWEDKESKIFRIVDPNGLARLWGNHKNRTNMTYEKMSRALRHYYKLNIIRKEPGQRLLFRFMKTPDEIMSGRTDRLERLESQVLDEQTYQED

ETV6RAE = biological target: T3, ETV6RAE (Mus musculus (murine), UniProt P97360 329-446, C334S;H432R;S435A;Q436E); experiment: EMSA
T3 sequence: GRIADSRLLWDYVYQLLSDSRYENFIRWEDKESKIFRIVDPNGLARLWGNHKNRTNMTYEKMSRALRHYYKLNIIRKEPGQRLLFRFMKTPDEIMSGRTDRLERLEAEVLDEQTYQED

Binder | binding result (ETV62C-red) | Kd (ETV6H432R) [nM] | Kd (ETV6RAE) [nM]
B1 | binds | – | –
B2 | – | 30 ± 10 | 90 ± 10

Reference: paper PMC5575937
